Laboratory results from US20080176756A1.

Target: Cyclosporine 29-56-14 combinatorial mutant clone R2-9 (scFv on yeast)
Test: competition, flow cytometry on yeast; M17 0 to 5 uM against 0.5 nM bt-CsA; physiological or selection diluent

fold increase of IC50 compared to WT CsA 29-56-14: 30 to 100 fold
Substance: cyclosporine A metabolite M17 (peptide)
